Test results taken from US20230295308A1, “ANTAGONISTIC BIPARATOPIC ANTIBODIES THAT SPECIFICALLY BIND FIBROBLAST GROWTH FACTOR RECEPTOR 2 AND METHODS OF USING SAME” (The Broad Institute, Inc., priority 2020, published 2023).

System: cells transformed with patient-derived FGFR2 having ECD activating deletion mutations
Experiment: patient-derived FGFR2 ECD mutation driven cell growth (FIG. 4F)
Format: cell-based
Conditions: fold change from nonspecific IgG control
From the text: FIGS. 4A-4F present schematic diagrams, blots, images, tables and graphs showing that the FGFR2 extracellular domain is important for FGFR2 fusion driven cell growth and transformation and that patient-derived FGFR2 extracellular domain mutations increased transformation capacity. As also shown, some parental antibodies were effective in inhibiting ECD mutation driven cell growth. FIG. 4A is a graph showing that FGFR2-BICC1, FGFR2-AHCYL1, and FGFR2-PHGDH fusions grow faster compared to controls and respond to FGF ligands. The FGFR2 extracellular domain (ECD) contributes to the growth of transformed NIH3T3 cells expressing FGFR2 fusions. […] In addition, the ability of the antibodies described herein to inhibit the growth of the cells that overexpressed the ECD mutant FGFR2 fusions was assessed. […]
Expression of FGFR2-BICC1, FGFR2-AHCYL1, and FGFR2-PHGDH in NIH3T3 cells induced increased proliferation. […] By way of example, antibodies C, D, and E were effective in blocking the growth of cells having a patient-derived FGFR2 ECD activating mutation, as determined by assessing fold-increase or decrease from a nonspecific Ab (IgG) control (FIG. 4F); therefore, combinations of the binding regions of these antibodies in biparatopic antibodies may likely result in a synergistic blocking effect.

B1: 2B 1.3.12 (antibody, V domains shown)
VH: EVQLVESGGGLVQPGGSLRLSCAASGFPFTSTGISWVRQAPGKGLEWVGRTHLGDGSTNYADSVKGRFTISADTSKNTAYLQMNSLRAEDTAVYYCARTYGIYDTYDMYTEYVMDYWGQGTLVTVSS
VL: DIQMTQSPSSLSASVGDRVTITCRASQDVDTSLAWYKQKPGKAPKLLIYSASFLYSGVPSRFSGSGSGTDFTLTISSLQPEDFATYYCQQSTGHPQTFGQGTKVEIK
notes: the duobody scheme implies IgG1 with K409R or F405L; also called Antibody D; GE
In the case of B1, the “blocking growth of cells having a patient-derived FGFR2 ECD activating mutation” value is reported as “effective”.
